Measurements as given in patent publication US20060154859A1 (YISSUM RESEARCH DEVELOPMENT COMPANY OF THE HEBREW …, published 2006).
Substitutions are numbered along the chain they refer to. Numbers in names are those of the source.

T1: long form of human leptin receptor (human, UniProt P48357 22-1165)
T1 construct: whole, on cells; The radioreceptor assay used a homogenate of the transfected BAF/3 cells; The proliferation assay used live BAF/3 1442-CI 4 cells; also called LEPR; OB-R
T1 sequence (looked up): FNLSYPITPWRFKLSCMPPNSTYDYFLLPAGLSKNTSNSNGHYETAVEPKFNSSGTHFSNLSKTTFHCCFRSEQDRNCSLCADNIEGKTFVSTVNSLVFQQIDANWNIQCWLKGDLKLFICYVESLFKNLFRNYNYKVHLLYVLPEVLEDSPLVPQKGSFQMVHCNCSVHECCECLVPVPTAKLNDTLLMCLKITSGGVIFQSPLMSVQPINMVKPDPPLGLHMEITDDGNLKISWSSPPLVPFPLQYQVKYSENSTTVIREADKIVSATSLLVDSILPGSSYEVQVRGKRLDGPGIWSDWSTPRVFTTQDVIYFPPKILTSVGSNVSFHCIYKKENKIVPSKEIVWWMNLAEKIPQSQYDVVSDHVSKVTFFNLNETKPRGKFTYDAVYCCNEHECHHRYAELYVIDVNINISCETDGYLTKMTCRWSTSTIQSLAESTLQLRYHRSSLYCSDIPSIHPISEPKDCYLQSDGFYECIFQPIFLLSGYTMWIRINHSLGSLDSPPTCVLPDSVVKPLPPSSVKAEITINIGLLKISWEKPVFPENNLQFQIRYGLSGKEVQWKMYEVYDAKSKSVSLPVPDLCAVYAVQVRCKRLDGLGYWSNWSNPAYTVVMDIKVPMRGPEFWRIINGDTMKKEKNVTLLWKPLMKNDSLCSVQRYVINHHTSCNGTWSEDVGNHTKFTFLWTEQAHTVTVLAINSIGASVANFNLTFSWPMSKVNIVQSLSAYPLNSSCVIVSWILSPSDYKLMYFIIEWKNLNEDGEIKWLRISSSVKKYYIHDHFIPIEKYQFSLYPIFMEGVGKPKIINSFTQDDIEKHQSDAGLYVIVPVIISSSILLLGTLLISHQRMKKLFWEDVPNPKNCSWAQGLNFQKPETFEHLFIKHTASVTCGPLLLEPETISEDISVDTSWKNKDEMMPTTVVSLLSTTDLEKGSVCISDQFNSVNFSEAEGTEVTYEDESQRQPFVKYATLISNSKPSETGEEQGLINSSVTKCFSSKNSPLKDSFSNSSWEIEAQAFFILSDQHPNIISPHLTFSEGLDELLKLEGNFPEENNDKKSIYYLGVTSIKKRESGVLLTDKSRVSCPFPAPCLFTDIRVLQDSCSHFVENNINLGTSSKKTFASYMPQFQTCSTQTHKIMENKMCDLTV

B1: ovine leptin L39A/D40A/F41A mutant (ligand)
chain: VSIRKVQDDTKTLIKTIVTRINDISHTQSVSSKQRVTGAAAIPGLHPLLSLSKMDQTLAIYQQILASLPSRNVIQISNDLENLRDLLHLLAASKSCPLPQVRALESLESLGVVLEASLYSTEVVALSRLQGSLQDMLRQLDLSPGC
notes: also called L39A/D40A/F41A (ovine)
B2: ovine leptin F41A/I42A mutant (ligand)
chain: B1 chain with A39L, A40D, I42A
notes: also called F41A/I42A (ovine)
B3: ovine leptin L39A/D40A mutant (ligand)
chain: B1 chain with A41F
notes: also called L39A/D40A (ovine)
B4: ovine leptin L39A/D40A/F41A/I42A mutant (ligand)
chain: B1 chain with I42A
notes: also called L39A/D40A/F41A/I42A (ovine)
B5: human leptin L39A/D40A/F41A mutant (ligand)
chain: VPIQKVQDDTKTLIKTIVTRINDISHTQSVSSKQKVTGAAAIPGLHPILTLSKMDQTLAVYQQILTSMPSRNVIRISNDLENLRDLLHVLAFSKSCHLPWASGLETLDSLGGVLEASGYSTEVVALSRLQGSLQDMLWQLDLSPGC
notes: Expressed with an extra Met-Ala at the N-terminus, Met removed; also called L39A/D40A/F41A (human)
B6: human leptin L39A/D40A/F41A/I42A mutant (ligand)
chain: B5 chain with I42A
notes: Expressed with an extra Met-Ala at the N-terminus, Met removed; also called L39A/D40A/F41A/I42A (human)
B7: human leptin F41A/I42A mutant (ligand)
chain: B5 chain with A39L, A40D, I42A
notes: Expressed with an extra Met-Ala at the N-terminus, Met removed; also called F41A/I42A (human)
B8: human leptin L39A/D40A mutant (ligand)
chain: B5 chain with A41F
notes: also called L39A/D40A (human)

Assays:
[1] = target: T2, recombinant chicken leptin binding domain (chLBD) (chicken); experiment: SPR (Biacore 3000), leptin mutant amine-coupled to CM5 chip, soluble chLBD as analyte, 25 C, 1:1 Langmuir fit, mean of 2 experiments
T2 construct: The 1:1 complex with leptin has a predicted mass of 40.5 kDa, so chLBD is about 24.5 kDa
Procedure: (v) Kinetic measurements of leptin and leptin mutants interaction with chLBD. All experiments were performed at 25° C. using surface plasmon resonance (SPR) methodology. The kinetics and equilibrium constants for the interactions between human and chicken recombinant LBD and chicken and hLep were determined using the Biacore 3000 system (Uppsala, Sweden). Leptin (human, ovine or chicken) was immobilized in a flow cell of a research-grade CM5 (carboxymethyldextran) sensor chip using amine-coupling chemistry (Johnsson et al., 1991). The immobilization steps were carried out at a flow rate of 5 μl/min in HBS-EB buffer. The surface was activated for 7 min with a mixture of 0.05 M N-hydroxysuccinimide and 0.2 M N-ethyl-N′(3-dimetylaminopropyl)-carbodiimide hydrochloride. Leptin was injected at a concentration of 50 μg/ml in 10 mM acetate, pH 3.5, until the desired level (1000 resonance units) was achieved. 1 M ethanolamine, pH 8.5, was injected for 7 min to block the remaining activated groups. A control surface was prepared by activating the carboxyl groups and then blocking the activated groups by ethanolamine as described. […] Regeneration of the surface after each interaction was performed by using 10-μl pulse of 10 mM glycine buffer, pH 2. The experiments were controlled by the kinetics Wizard of the Biacore control software, which corrects automatically for refractive index changes and non-specific binding by subtraction of the responses obtained for the control surface from the data obtained for the interactions between LBD and leptin. The obtained binding curves were fitted to the association and dissociation phases at all LBD concentrations simultaneously using Biacore evaluation software. In all cases, the best fit was obtained for a simple bimolecular interaction (Langmuir model).
To further characterize the binding capacities of chLBD with human or ovine leptins and their mutants the surface plasmon resonance (SPR) technique using respective leptin (or leptin mutant) immobilized on a sensor chip by amine coupling and binding of soluble chLBD was employed.

[2] = target: T1, long form of human leptin receptor; experiment: radioreceptor competition assay against iodinated leptin, homogenate of BAF/3 cells with long form of human leptin receptor, average of two experiments
Procedure: (vi) Binding assays. Radiolabeled ovine ¹²⁵I-leptin served as a ligand and all other nonlabeled leptins or their mutants as competitors. The experiments were conducted with homogenates of BAF/3 cells stably transfected with the long form of human leptin receptor. The cells were cultured in RPMI 1640 supplemented with 5% FCS in the -presence of IL-3 to minimize leptin receptors down-regulation till concentration of 10⁶ cells/ml was reached. Then the cells were spun and stored at −70° C. […] Each tube contained 150 μl of reaction buffer, 100 μl ¹²⁵I-human leptin (700,000-800,000 cpm) and 100 μl of different leptin solutions (providing 0-5000 ng/tube) in reaction buffer and the reaction was started by addition of 150 μl homogenate. The tubes were incubated for 18 h at room temperature. Then the leptin-receptor complex was precipitated by adding 250 μl of 1% (w/v) bovine immunoglobulin and 500 μl of 20% (w/v) polyethylene glycol. The tubes were thoroughly mixed, incubated for 30 min at 4° C., and centrifuged at 12,000 g for 15 min at 4° C. Then supernatant was carefully aspirated and the precipitates were counted in a γ counter. Human leptin was iodinated according to a protocol previously described for the iodination of hGH (Gertler et al., 1984).
Iodinated human leptin served as the ligand in all competitive experiments and the respective wild-type (WT) human and ovine leptins and their alanine mutants as competitors. Freshly prepared homogenate of BAF/3 cells stably transfected with the long form of human leptin receptor served as receptor source. Homogenate from 1.75×10⁶ cells was used per tube giving 6 to 7% specific binding.

Row | Binder | Kd [1] | koff [1] | kon [1] | IC50 [2]
1 | B1 | 13.8 nM | 0.0025 s⁻¹ | 181000 M⁻¹ s⁻¹ | 2.2 nM
2 | B2 | 12.8 nM | 0.0032 s⁻¹ | 250000 M⁻¹ s⁻¹ | 3.44 nM
3 | B3 | 24 nM | 0.0057 s⁻¹ | 237000 M⁻¹ s⁻¹ | 1.83 nM
4 | B4 | 29.3 nM | 0.0032 s⁻¹ | 109000 M⁻¹ s⁻¹ | 1.83 nM
5 | B5 | 28.5 nM | 0.0102 s⁻¹ | 358000 M⁻¹ s⁻¹ | 5.21 nM
6 | B6 | 50.3 nM | 0.0068 s⁻¹ | 135000 M⁻¹ s⁻¹ | 5.43 nM
7 | B7 | 31.8 nM | 0.0115 s⁻¹ | 362000 M⁻¹ s⁻¹ | 6.82 nM
8 | B8 | 22.9 nM | 0.0125 s⁻¹ | 545000 M⁻¹ s⁻¹ | 4.16 nM
